# Measured values taken from US9605266.
# Biological target: C-C chemokine receptor type 5 (CCR5) (Homo sapiens) (UniProt P51681)
# Test: flow
# Conditions: 2'-F pyrimidines (2'-F-C, 2'-F-U), negative control
# Sequence of C-C chemokine receptor type 5 (CCR5) (Homo sapiens) (P51681 whole entry): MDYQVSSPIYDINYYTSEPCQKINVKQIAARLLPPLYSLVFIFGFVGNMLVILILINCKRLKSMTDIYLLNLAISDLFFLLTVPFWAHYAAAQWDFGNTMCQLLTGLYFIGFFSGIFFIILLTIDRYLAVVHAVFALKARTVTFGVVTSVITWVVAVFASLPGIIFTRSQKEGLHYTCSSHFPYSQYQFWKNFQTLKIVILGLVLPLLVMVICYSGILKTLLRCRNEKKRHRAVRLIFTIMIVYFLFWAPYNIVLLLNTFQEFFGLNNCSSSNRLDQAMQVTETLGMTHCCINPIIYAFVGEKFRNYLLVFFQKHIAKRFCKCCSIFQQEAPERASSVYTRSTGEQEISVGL
sequence,measurement,setting,value
GGGAGGACGAUGCGGNNNNNNNNNNNNNNNNNNNNCAGACGACUCGCCCGA [0-RNA pool (starting library)],binding signal (% Cy3-positive cells),untreated 0.076%,0.808
same,binding signal (% Cy3-positive cells),untreated 0.191%,7.63
